Where a chain is given by its changes, count along the chain named. Names may count otherwise. “Also recorded” adds a separate entry of the source.
B1: D210A/D212A: heparinase I CB-1 double mutant (protein, UniProt Q05819 22-384, looked up, variant D210A D212A)
Heparin lyase I: QQKKSGNIPYRVNVQADSAKQKAIIDNKWVAVGINKPYALQYDDKLRFNGKPSYRFELKAEDNSLEGYAAGETKGRTELSYSYATTNDFKKFPPSVYQNAQKLKTVYHYGKGICEQGSSRSYTFSVYIPSSFPDNATTIFAQWHGAPSRTLVATPEGEIKTLSIEEFLALYDRMIFKKNIAHDKVEKKAKAGKITYVAGKPNGWKVEQGGYPTLAFGFSKGYFYIKANSDRQWLTDKADRNNANPENSEVMKPYSSEYKTSTIAYKMPFAQFPKDCWITFDVAIDWTKYGKEANTILKPGKLDVMMTYTKNKKPQKAHIVNQQEILIGRNDDDGYYFKFGIYRVGNSTVPVTYNLSGYSETAR
B2: G213A/T216A: heparinase I CB-1 double mutant (protein, UniProt Q05819 22-384, looked up, variant G213A T216A)
Heparin lyase I: B1 Heparin lyase I with A189D, A191D, G192A, T195A
B3: Y379A: heparinase I CB-2 mutant, tyrosine 379 changed to alanine (protein, UniProt Q05819 22-384, looked up, variant Y379A)
Heparin lyase I: B1 Heparin lyase I with A189D, A191D, Y358A
B4: G378A: heparinase I CB-2 mutant, glycine 378 changed to alanine (protein, UniProt Q05819 22-384, looked up, variant G378A)
Heparin lyase I: B1 Heparin lyase I with A189D, A191D, G357A
B5: T382A: heparinase I CB-2 mutant, threonine 382 changed to alanine (protein, UniProt Q05819 22-384, looked up, variant T382A)
Heparin lyase I: B1 Heparin lyase I with A189D, A191D, T361A
B6: T373A: heparinase I CB-2 mutant, threonine 373 changed to alanine (protein, UniProt Q05819 22-384, looked up, variant T373A)
Heparin lyase I: B1 Heparin lyase I with A189D, A191D, T352A
B7: S377A: heparinase I mutant where serine 377 is mutated to alanine; calcium-independent (protein, UniProt Q05819 22-384, looked up, variant S377A)
Heparin lyase I: B1 Heparin lyase I with A189D, A191D, S356A

Key:
[1] = Heparinase I UV 232 nm activity assay as a function of heparin concentration (Kcat, Km); type: biochemical, porcine; details: for Kcat / Km: heparin 0 to 4 mg/ml, 5 mM calcium acetate, pH 7.0; for Kcat: 100 mM MOPS; for effect on enzyme activity (kcat), in words: compared to wild-type r-heparinase I
Excerpt: Heparinase II Activity Assay. Native heparinase II from Flavobacterium heparinum, was purified as described previously (Godavarti, R., and Sasisekharan, R (1996c) Biochem. Biophys. Res. Comm. 229, 770-777). The UV 232 nm assay to quantify native heparinase II enzymatic activity was similar to that reported for heparinase I (Bernstein, H., Yang, V. C., Cooney, C. L., Langer, R. (1988) Meth. Enzym. 137, 515-29). Briefly, the course of the reaction is monitored by measuring the increase in absorbance at 232 nm as a function of time under saturating substrate concentrations. With heparin as the substrate, the reaction was carried out at a concentration of 4 mg/ml in 50 mM sodium phosphate buffer, pH 7.3. With 2 mg/ml heparan sulfate, the reaction was measured in 50 mM sodium phosphate buffer, pH 6.9 (Sasisekharan, R., Moses, M. A., Nugent, M. A., Cooney, C. L., Langer, R. (1994) Proc. Natl. Acad. Sci., USA 91, 1524-1528). The temperature for all enzymatic activity measurements was kept constant at 35° C.
Heparinase I Activity Assay. The UV 232 nm assay to quantify heparinase I enzymatic activity was similar to that described in Example 1. With heparin as the substrate, the reaction was carried out at a concentration of 4 mg/ml in 100 mM MOPS, 5 mM calcium acetate, pH 7.0. The temperature for all enzymatic activity measurements was kept constant at 30° C. For the inactivation kinetic profiles, activity was measured as outlined above at precise time points.
(§1) Heparinase I Activity Assays: The UV 232 nm assay was used as described in Example 1. When measuring the enzyme activity as a function of heparin concentration, heparin concentrations varied from 0 to 4 mg/ml at a fixed calcium concentration of 5 mM (100 mM MOPS buffer/5 mM calcium acetate, pH 7.0). The data was then fit to an non-linear equation to determine Kcat and Km of heparinases I. Heparinase mutant activity was also investigated as a function of calcium concentration ranging from 0 to 10 mM. […] Activity is expressed as IU-μmol product formed/min using ∈=−3800-M^−1CM^−1.

[2] = Heparin-POROS affinity chromatography; type: binding; details: for NaCl: salt concentration at which enzyme elutes from heparin-POROS column, 10 mM Tris, 1 mM EDTA pH 7.0
Method: Heparin-POROS chromatography: About 30-40 μg of -L r-heparinase I and the various mutant enzymes were injected into a heparin POROS (4.6 mm×100) column (PerSeptive BioSystems, Framingham, Mass.) connected to BioCAD system (PerSeptive BioSystems). Proteins were eluted using a linear gradient of […] NaCl in 10 min (10 mM Tris, 1 mM EDTA pH 7.0) and monitored at 210 nm. EDTA was added to chelate any calcium ions that may be present in the buffers.

[3] = Heparinase I activity as a function of calcium concentration (K0.5, calcium dependence); type: biochemical
Method: as §1

[4] = calcium concentration at which half of the maximum enzyme activity was observed, calcium 0 to 10 mM, Table 4 first K0.5 column

Molecule | decrease in Kcat compared to wild-type r-heparinase I [1] | Kcat [1] [s⁻¹] | Km [1] [µM] | NaCl [2] [mM] | K0.5 ([3]; Table 4 second K0.5 column) [µM] | K0.5 [3, 4] [µM] | elution salt concentration / heparin binding relative to wild-type r-heparinase I, in words [2] | effect on enzyme activity (kcat), in words [1] | dependence of enzyme activity on calcium [3]
B1 | 4.5 fold | 21 | 0.32 | 515 | 700 | 700 |  |  | 
B2 | 5 fold | 19 | 0.83 | 498 | 2200 | 2200 |  |  | 
B3 | about 10 fold | 9 | 0.32 | 489 | 230 | 230 | comparable to wild-type r-heparinase I |  | 
B4 |  | 41 | 0.74 | 489 | 80 | 80 | comparable to wild-type r-heparinase I | decreased only by about 1 half | 
B5 |  | 65 | 1.64 | 488 | 100 | 100 | comparable to wild-type r-heparinase I | decreased only by about 1 half | 
B6 |  | 85 | 0.96 | 480 | 50 | 50 | comparable to wild-type r-heparinase I | no significant decrease in enzyme activity | 
B7 |  | 71 | 2.74 | 486 | 50 | 50 | comparable to wild-type r-heparinase I | no significant decrease in enzyme activity | loss of dependence on calcium; also recorded: calcium-independent

Reference: patent US7560106B2, “Rationally designed heparinases derived from heparinase I and II and methods of sequencing therewith” (Massachusetts Institute of Technology, priority 1998, dated 2009)
